Our source for the reduction of binding relative to Mts^WT values is PMC13482807.

This assay addresses Microtubule star (Mts) L186A (Drosophila) (UniProt P23696). In words: co-IP; S2 cells transfected with the tagged constructs; lysis in 50 mM Tris pH 7.5, 150 mM NaCl, 1% Triton X-100, 10% glycerol, 1 mM EDTA with phosphatase and protease inhibitors; FLAG-tagged proteins on anti-FLAG M2 agarose 1-2 h at 4 °C, eluted with 3x FLAG peptide; immunoblot (Figures EV3G,H, EV5C-E, 5B-D). For orientation: Immunoblotting shows a protein as a band on a membrane.
UniProt P23696, sequence (P23696 whole entry L186A): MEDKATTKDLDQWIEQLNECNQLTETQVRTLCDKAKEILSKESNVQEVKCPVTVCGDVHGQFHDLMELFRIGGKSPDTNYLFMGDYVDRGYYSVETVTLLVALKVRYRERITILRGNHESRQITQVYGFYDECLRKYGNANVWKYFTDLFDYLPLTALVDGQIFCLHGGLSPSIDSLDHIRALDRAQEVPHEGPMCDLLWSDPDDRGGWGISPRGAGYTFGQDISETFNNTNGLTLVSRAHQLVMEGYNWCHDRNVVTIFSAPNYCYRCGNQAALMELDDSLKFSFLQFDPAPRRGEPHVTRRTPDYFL

“Connector of kinase to AP-1 (Cka), PP2A B''' regulatory subunit (natural protein)” registered a reduction of binding relative to Mts^WT of 50%.
